From US20110086338A1 come the findings set out here.

Experiment [1] concerns the target T7-bio: coliphage T7 major capsid protein gp10A fused to the 15-amino acid biotinylation peptide, biotinylated in vivo by the host BLP (Enterobacteria phage T7). Kind of experiment: TEM of phage adsorbed to carrier E. coli cells, streptavidin-coated QDs in excess.
Experiment [2] shares this target. Kind of experiment: flow cytometry of carrier E. coli cells with phage at MOI 5 and streptavidin-QDs.

Chain of T7-bio: coliphage T7 major capsid protein gp10A fused to the 15-amino acid biotinylation peptide, biotinylated in vivo by the host BLP (Enterobacteria phage T7) (P19727 1-349, tags or fused parts left off): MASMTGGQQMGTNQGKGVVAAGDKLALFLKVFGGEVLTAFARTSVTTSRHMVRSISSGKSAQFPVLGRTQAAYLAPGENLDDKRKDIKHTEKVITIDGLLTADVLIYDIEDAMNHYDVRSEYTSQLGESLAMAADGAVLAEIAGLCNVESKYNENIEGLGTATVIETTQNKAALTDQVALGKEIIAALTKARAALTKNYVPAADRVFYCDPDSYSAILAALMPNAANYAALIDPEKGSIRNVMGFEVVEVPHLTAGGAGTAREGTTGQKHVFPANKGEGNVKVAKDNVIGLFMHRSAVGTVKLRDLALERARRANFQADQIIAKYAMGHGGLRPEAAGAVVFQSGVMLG

“streptavidin coated QD (QD 605), Quantum Dot Corporation (from UniProt P22629 37-163)”: in experiment [1], the percent of T7-bio phage with no QDs bound came out at 7% and the percent of the total peptides displayed that carry a QD was 0.5%. In experiment [2], this substance came in with a fluorescence against the T7-myc control (orders of magnitude) of 2 and a percent of phage-bound cells with fluorescence above the threshold (P2) of 94%.
